Data on 10 molecules can be found in patent publication US20260049138A1 (Chugai, published 2026).

Numbering of substitutions follows the chain as printed. Names may count otherwise.

The target of the assay is T1, CD3ε homodimer protein (human, UniProt P07766 23-126, limits assumed, sulfo-tag or biotin label in the ECL assays; amine-coupled to the chip in SPR).
T1 construct: also called human CD3ε homodimer protein; CD3 (CD3ε)
Put plainly: SPR Biacore T200; CD3ε homodimer on CM4 chip.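 Further: Single-residue variant antibodies injected as analyte over CD3ε homodimer immobilized by amine coupling, run at 25 °C in HBS-EP+ buffer.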 On the technique in general: SPR reads the build-up and loss of mass on a sensor chip optically.

T1 sequence (P07766 23-126 limits assumed): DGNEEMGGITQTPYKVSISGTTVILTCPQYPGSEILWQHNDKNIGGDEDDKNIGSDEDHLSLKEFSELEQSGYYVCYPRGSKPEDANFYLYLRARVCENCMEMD
Description: An appropriate amount of CD3ε homodimer protein was immobilized onto Sensor chip CM4 (GE Healthcare Japan Corp.) by the amine coupling method. Then, the antibody having an appropriate concentration was injected thereto as an analyte and allowed to interact with the CD3ε homodimer protein on the sensor chip. Then, the sensor chip was regenerated by the injection of 10 mmol/L glycine-HCl (pH 1.5). The assay was conducted at 25° C., and HBS-EP+ (GE Healthcare Japan Corp.) was used as a running buffer. […] Each parameter was calculated using Biacore T200 Evaluation Software (GE Healthcare Japan Corp.).

B1: CE115HA000 N53S one-arm antibody (antibody, human IgG1, kappa, L234A L235A, N297A, name in Kabat numbering)
heavy: QVQLVESGGGVVQPGRSLRLSCAASGFTFSNAWMHWVRQAPGKGLEWVAQIKAKSSNYATYYAESVKGRFTISRDDSKNSLYLQMNSLKTEDTAVYYCRYVHYGAYYGVDAWGQGTTVTVSSASTKGPSVFPLAPSSKSTSGGTAALGCLVKDYFPEPVTVSWNSGALTSGVHTFPAVLQSSGLYSLSSVVTVPSSSLGTQTYICNVNHKPSNTKVDKKVEPKSCDKTHTCPPCPAPEAAGGPSVFLFPPKPKDTLMISRTPEVTCVVVDVSHEDPEVKFNWYVDGVEVHNAKTKPREEQYASTYRVVSVLTVLHQDWLNGKEYKCKVSNKALPAPIEKTISKAKGQPREPQVYTLPPSRCELTKNQVSLSCAVKGFYPSDIAVEWESNGQPENNYKTTPPVLDSDGSFFLVSKLTVDKSRWQQGNVFSCSVMHEALHNHYTQKSLSLSPDYKDDDDK
chain: EPKSSDKTHTCPPCPAPELLGGPSVFLFPPKPKDTLMISRTPEVTCVVVDVSHEDPEVKFNWYVDGVEVHNAKTKPREEQYNSTYRVVSVLTVLHQDWLNGKEYKCKVSNKALPAPIEKTISKAKGQPREPQVCTLPPSRDELTKNQVSLWCLVKGFYPSDIAVEWESNGQPENNYKTTPPVLDSDGSFFLYSKLTVDKSRWQQGNVFSCSVMHEALHNRYTQKSLSLSP
light: DIVMTQSPLSLPVTPGEPASISCRSSQSLVHSNRNTYLHWYQQKPGQAPRLLIYKVSNRFSGVPDRFSGSGSGTDFTLKISRVEAEDVGVYYCGQGTQVPYTFGQGTKLEIKRTVAAPSVFIFPPSDEQLKSGTASVVCLLNNFYPREAKVQWKVDNALQSGNSQESVTEQDSKDSTYSLSSTLTLSKADYEKHKVYACEVTHQGLSSPVTKSFNRGEC
As to B1, the “ratio of amounts bound Z=Y/X (altered form / CE115HA000)” value turned out to be 0.83.

B2: CE115HA000 N54G one-arm antibody (antibody, human IgG1, kappa, L234A L235A, N297A, name in Kabat numbering)
heavy: B1 heavy with S56N, N57G
chain: B1 chain
light: B1 light
Regarding B2, the “ratio of amounts bound Z=Y/X (altered form / CE115HA000)” value turned out to be 0.98.

B3: CE115HA000 N54L one-arm antibody (antibody, human IgG1, kappa, L234A L235A, N297A, name in Kabat numbering)
heavy: B1 heavy with S56N, N57L
chain: B1 chain
light: B1 light
For B3, the “ratio of amounts bound Z=Y/X (altered form / CE115HA000)” value worked out at 0.94.

B4: CE115HA000 N53Y one-arm antibody (antibody, human IgG1, kappa, L234A L235A, N297A, name in Kabat numbering)
heavy: B1 heavy with S56Y
chain: B1 chain
light: B1 light
Take B4: the “ratio of amounts bound Z=Y/X (altered form / CE115HA000)” value was determined as 0.63.

B5: CE115HA000 N54F one-arm antibody (antibody, human IgG1, kappa, L234A L235A, N297A, name in Kabat numbering)
heavy: B1 heavy with S56N, N57F
chain: B1 chain
light: B1 light
Regarding B5, the “ratio of amounts bound Z=Y/X (altered form / CE115HA000)” value was 1.12.

B6: CE115HA000 N53W one-arm antibody (antibody, human IgG1, kappa, L234A L235A, N297A, name in Kabat numbering)
heavy: B1 heavy with S56W
chain: B1 chain
light: B1 light
In the case of B6, the “ratio of amounts bound Z=Y/X (altered form / CE115HA000)” value was 0.88.

B7: CE115HA000 N54K one-arm antibody (antibody, human IgG1, kappa, L234A L235A, N297A, name in Kabat numbering)
heavy: B1 heavy with S56N, N57K
chain: B1 chain
light: B1 light
On to B7, for which the “ratio of amounts bound Z=Y/X (altered form / CE115HA000)” value was found to be 1.2.

B8: CE115HA000 N54D one-arm antibody (antibody, human IgG1, kappa, L234A L235A, N297A, name in Kabat numbering)
heavy: B1 heavy with S56N, N57D
chain: B1 chain
light: B1 light
For B8, the “ratio of amounts bound Z=Y/X (altered form / CE115HA000)” value amounted to 0.62.

B9: CE115HA000 N54A one-arm antibody (antibody, human IgG1, kappa, L234A L235A, N297A, name in Kabat numbering)
heavy: B1 heavy with S56N, N57A
chain: B1 chain
light: B1 light
In the case of B9, the “ratio of amounts bound Z=Y/X (altered form / CE115HA000)” value amounted to 0.86.

B10: CE115HA000 N54Q one-arm antibody (antibody, human IgG1, kappa, L234A L235A, N297A, name in Kabat numbering)
heavy: B1 heavy with S56N, N57Q
chain: B1 chain
light: B1 light
With B10, the “ratio of amounts bound Z=Y/X (altered form / CE115HA000)” value was determined as 0.84.
